This data set in a line: protease stability score; higher = more stable; yeast display proteolysis, trypsin and chymotrypsin.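 Note: relative to predicted unfolded state with 0 unfolded-like and 1 meaning tenfold more protease.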
For “SEEEKNARDFLRLIFNHVHTGDFRHMSKLFDPHVRIQIGDKVFHGREEAERVWLEWRVEDIKIRHIDIQGDKLIVDTEVHGNFNGRNRNIETEIHVRKVDGKWILESMSVI”, the protease stability score stood at 2.54.

In turn, “SEEEKRADEFNRRWVHKMQTGDEESLHELIDPNAKLHFEGHDEVGMQRVSHTIVKFFLEIRVHYIHITDARVYDGRLELDTRVDGEFNGKRDTLKIELYVLKVNGVWLLKELRVS” gave a protease stability score of 1.

Turning to “SEEEKRAEEWVKLMIHAHLTGDFHLLERFADPHTRVDFNGVENIGMEEVSRWIKEWRRRIDHTEIRLHRIRLQGDKVHVKTELILEYDGRTEFIDSRINLIVINGVLKELRVTLH”, the protease stability score came out at 1.38.

Take “SEEEKRAKKLIEIFMESIETGDWKEIHRMMDPTTRLEQGDYEHHGRDEIRELWLQELLDLGVERIRVKVHHVDVIDGKAHVDVTIHFNGVTQRRHYVIVKIDGRWMIKLVIIR”: the protease stability score was found to be 1.81.

For “SEEEKRARIASELLFEYLHTGDETLWEELMDPDVRLEINGRLFHGMDSFRHALEIWLKEIRLRDMRVRELHVIGDKIHVNSEDEVEVNGRVVNYESRLDMEKIDGRWRIKRTSIK”, the protease stability score is 1.19.

In turn, “SEEEKRIRDWARLMEEWRRTGDEEDMSRNLDPNARLILIIDGRNILFHGREEVVRVLEELKERLGFKHEEIKDSRVQGDFLHIHGTLRFDGVETEVRVDTIVINGVVRTLKYHFE” yielded a protease stability score of 0.467.

In the case of “SEEEKRMRDVLRRMEEALKTGDWKFLKDLLDPHTRTVINGRDRHGREFVLEVFSRFGADHSDIEDEDFQGNFVILHLEMEIGDKRIRLRIYIEKINGRWIWRHVIFD”, the protease stability score is 2.85.

As for “SEEEKRMTEDAEHFWRRFLTGDWRTLSRLIDPHVIIHINGVDLHGRHDAHREMEEHAEQFKNIKVHIDHIDVVGDKLHVDVTININGRRFKEEIIIVMFNGRVKELEVRTH”, the protease stability score amounted to 1.61.

The sequence “SEEEKRNHEIAKKFIEAFETGDEDFVNHMADPHVKIIVDGVELHGRDQLHHVRKWLEERYPNVRWHLDDMRVQGNKVFLETTLHVGDKTRKSEIILIVINGRLKEIEMRIR” displayed a protease stability score of 1.92.

Turning to “SEEEKRWEDWARLMLNWLRTGDEEKISNLMDPNAKSETLIDGRRVEYHGREEVSRFLFELFEEFGIDHLHVRHYDVFDGVFHAHFRVHVGEKERELEVEFHVVDGRITVDTVKFH”, the protease stability score was found to be 1.5.

With “SEEEKSAKIAVDLLLKSQLTGDEQTISELLDPNVRLDVNGREYHGREEYKKWFKHMVERADHMEIRLRHVHFYDGQVHVIGILIIRVNGKELRWEQILVVDKIDGRWLLSEFNFH”, the protease stability score was determined as 2.63.

In turn, “SEEEKSSHLSIRLWLEMLITGDEDHLEHLADPNVRIEFEGREFHGRERAMHWMRHVSRHMRIEHIQIRRIHYFDGRLQLEGRIDGNINGRNHRFDSELEVTKIDGRWLLTSERIE” showed a protease stability score of 1.24.

Sequence “SEEEKTLERIARLHIQLWLTGDEDTLKKLADPDDRLVVDFENHTWEHHGREEVEKHTKHFLRHLRITHVDHHTVQIINGKAHMHTTVDFQVNGKIVKMHTTIIVVEVNGRLKFVRIEVH” showed a protease stability score of 1.22.

For the sequence “SEEEKTSHHLLKLIKHDRETGNEKRMEEYIDPHVKLLINGREFHGWEDALHWIREAGIKHFELKHIDIIGEKLRIDGVINYNGQTHRITFHAIKVDGVWLNKEINHG”, the protease stability score came out at 0.121.

Consider “SEEEKTVKELVRLILHLLSTGDEEKWLHLADPNMRIEIDFNGKHVELHGREHVHWLLKQFKNARIEIELKHVHVYDGVAEITSILHYHQGDFHWHTESEVMVVVVDGRIKEISFRIR”, for which the protease stability score worked out at 2.24.

Take “SEEEKVIWDIFQDWVRAYHTGNEDLIEHLMDPHVRLDINGKEKHGREWVRYHLHELREHIRTKEYEVHHFDVVDGRAHADYEFHVEYNGREFYRRTHIEIQIVNGKIRVINIRFE”: the protease stability score was determined as 1.43.

For “SEEEKWAELALEETLRHLKTGDPRVLLELADPNVKLDVNGREYHGREVFLNFIEEFREKFKNITIEVKDRDVVNGRLITHLRLIVNGKEERVHMRSHKVDGQWVLDSVKIE”, the protease stability score was 1.9.

On to “SEEEKWTEIAFTLWREVVETGDEHDVQEMADPNARYKQGDKEYHGREHLLEFMVKFFRHARVDDDDHKHVRTINGRVELQMRSEVTINGKLLITDVELIIVKVNGRWVVESLILG”, for which the protease stability score was 1.43.

Regarding “SEEEKYARKAIELMKHNYETGDFEKLSRLMDPHVRLHIGDKSHHGMDEFVHWVSQFDHMEMNVHDVRVQGDKIEIIGHLVVRIDGRERRTETYIHLHKFDGQWIVHTIEVR”, the protease stability score was found to be 1.34.

“SEEEKYFEHWLKILLQNMHTGNEENLKRLADPTYRLHIGDKNFIGREMFLDSMRRIDHFDDAKLKSIETYGDYVHAEIDHDGRVDGRKIRVNTILLTLKVDGRWIVHSFKIE”: the protease stability score was 0.827.

In turn, “SEEENEAKSWLEYVIRLLETGDEDSLRKLMDPHVRLIQGDKEFHGRELVTDIISEHIRKVKNVRIRIDDIKFIGEKVYLHGTLEYGDKKHELHLITDKVNGRWLLRSIELR” came in with a protease stability score of 2.56.

With “SEEENILEEMLKIFYESSRTGNEKTMQELFDPHARIEFEGVENIGMELAMRLTTHWRLQTVHIKDVRVIDGQIHMDGEERGVINGQEIRTEVDIISIKIDGRWLFHSKQIN”, the protease stability score worked out at 0.369.

The sequence “SEEENISKHLADLMFRAIFTGDWQELSRLLDPNARLRVDGVIHHGRETSVEFLERMFRTLGIDHYRVRHVNVQGEKVDIHSEVEYDGRKIDTKIHLVVVNGKVKSVDVRVD” registered a protease stability score of 1.97.

In turn, “SEEEQDIKHFLELIERTHHTGDEKLFRDLFDPNVRLHVGDKNMHGREKALERWRLLGYEIKHLRWRDFRIFDGRVTAHGEMEGQVNGQKIKRDVEIVLVKIDGQWFIEEERVR” registered a protease stability score of 1.57.

Consider “SEEEQEAIENLHQYIEAIKTGDEDKLRDLFDPNAIIHFDGREIHGRHVFLKKLRHLWLDLKHFHIQHVEPYNGRVEIHGFQHTSVDIDGVRSRRDEHVLIEIIKINGKWKIKRIEWI”, for which the protease stability score was found to be 1.68.

“SEEEQEFRLILKEHLDKLETGDEDDLHRLMDPNVRIEIGDKEMHGREHATRFFRELRVEHVHLESYELQGEKVNLHGRMIGDINGKKVDRTVHIFLLKVNGRWIIHSWEVV” had a protease stability score of 2.14.

“SEEEQELYRTAKLMLESMTTGNEELNKRLADPNVRIHWNGVENHGWRIFRENLEELRIHLKDWRFRRFDLYNGVALLDIEVQIDIEIGDKRIEYETQTILLLFVVNGRIKSISMRIL”: the protease stability score was found to be 1.07.

The sequence “SEEEQFFRLALELFRQVLQTGDEDRLRELVDPNAKHIINGVELHGRSVLEEFLKRYKNLRIHDVEIKDIRVFDGKLELHGIEDGIIGDKRDERRWHLISEKVDGRWIMHEIQID” yielded a protease stability score of 1.7.

For “SEEEQHAKHMSHLISHVLKTGDEERWKELMDPHTRLIVGDKEFHGREALHELKRRVDHMKDVLIHSVEVQGNKADFDVEVHVKVDGRHERLKMRWIVDKVNGRWVQSEIIIH”, the protease stability score turned out to be 1.65.

As for “SEEEQHFRELLHHILENMYTGDWRSLEKNADPHARLFYYQGDKYELYIGMHEWRRLLHHMHERFRNARFQIDEWHVQGDYFKIVESLDYGDKHIDIRVHIQYVNGRLKEMHIHIH”, the protease stability score turned out to be 1.24.

In turn, “SEEEQHLEKMAEDLLHFILTGDEEAMRKMADPTVRLHLHIGDKEERYHGRRDVVRWFHEWVKKVKGMTIEIKRVKVFDGRIFVDGILEINGVKVRVHLITDVIDGKLTRTEERIE” yielded a protease stability score of 1.49.

The sequence “SEEEQKLRNMAKLTFKDLITGDEEHFEKLADPHTRFNVGNYERHGMRLHLEWYLEWLTRIKGLKLRLELHDVRVVDGRAISDTTLDVHIGDKHIHQDIKLLLVIVDGRIKELEIRFV” displayed a protease stability score of 1.22.

Sequence “SEEEQLALEIARRLVRSILTGDEHEIHRLMDPHVRTNWNGQELVGREEWDRFNHEMRIHELRIREFDVEVFNGRVESRFRTETRMTFDGREVNEETKLIVILDKVDGKWHLRHVEFRIH” returned a protease stability score of 0.651.

As for “SEEEQLIRLALEWELHSEETGDEELVRENADPHVRLEINGVEVIGMELAVKILFELKEDMGIKHIELKSVDTQGDKLNIHSKYHVNGRHIDVIIISKKVNGRWRMKRIIVTIR”, the protease stability score is 2.46.

“SEEEQLVQSAIEITVEALQTGDEHKIREMLDPHVKVRINGQDTHGWEVMEVFMKELGIKHIRVHIEHVNVQGEKVEVKGRVIINFNGRHYEREHWIIIFKIDGRWVNDSIEYI” gave a protease stability score of 2.12.

As for “SEEEQRKEDFLRWFHKALLTGDEEVLLKMADPNVRADINGVDIHGWKEFRQTTHDLRREIRIRDFEVKDEKLVGDKLHVDSSVDGEFDGRRHELKTHLIFLKVDGKWFFKEIRIK”, the protease stability score turned out to be 1.34.

For “SEEEQRQHEFMILWLEYFRTGNEEELLELIDPNVLLVMDINGRNELNHGRELWHEFMNRFWEKIKNATFIVHDKRVINGRIHMDGRLDINGREYTVHLHIEVINGVTKRFEIRIR”, the protease stability score came out at 1.68.

On to “SEEEQSARKVIEDLIRDLVTGDEKSLRRLMDPHVRFDIGDKELIGREEVLEFWRHIRIHDIKLEDVRLIDGRATVEGKLNGEINGVHHRLDEHIFIYKVDGRWVVHEIRII”, for which the protease stability score came out at 1.53.

In turn, “SEEERATEYVLSMLLHLLRTGDEDALFEMADPRYRFIYGEKEKVGRHVIHEFITHLRIDDFRLRRLEIQGDKIITDGEMYGTINGQHETRRVILIMRKINGRWFLESIEIR” came in with a protease stability score of 1.7.

Take “SEEERDAEENIRLYEELWRTGDFDIFKHLADPNVRLHINGRDVHGRENVSRLISEWRDEDIILRHFTVIDGRIEVHSEFHGQVDGQRRNTRIHIHLRKINGQWRLTEVKYE”: the protease stability score came to 1.12.

“SEEERDAHEAWRLILETNLTGDEDFSANLMDPDVRITINGRHLHGRELVLRFLNEWRIEFHRVEIKDYEVQGDYVIIIGHMDGILKVDGKEIRFTSDVSIISVKVNGRWLIREIHIK”: the protease stability score worked out at 2.7.

In turn, “SEEERDAKEAVHLLLDMIDTGDFERITKYMDPNTRSRVGDKNDHGRHWLRHRRRHAGHDNIHVHLTRVDIFDGVVQINGRLDVDGKEIEVHWFIRKINGRWIVEEVHIQ” had a protease stability score of 0.367.

Turning to “SEEERDARIAIEIMLRLLHTGDEESMHQLADPDVRSDVGDKELHGWKLFVDVITEMGIDHVELEHLHTQGDKVHIHVRSFFNGREYLVNLHVRKVDGKWYVEEMKISHH”, the protease stability score was 2.45.

For the sequence “SEEERDIRHSIEMLFYYFETGDWREWERLADPRARLIIGEKEHHGREELSRSLKELLDRLGVDHYEIKDKRSEIIDGRVNLHVRGHLHVNGRNQHVIVIMVAIKIDGRWLLESLEIRLH”, the protease stability score came to 1.3.

The sequence “SEEERDLKEEADRFLDHVRTGDEDTLRDLIDPNVKLRVDQGDKDIELHGREEVIKFLVHMRIHHVKLNNFRIQGNKIIHDIRVDGTINGVRRDRREHLILHIVDGKIKIVEIRVE” displayed a protease stability score of 1.28.

With “SEEERDLREALEEHKRTLQTGDEELWNKLFDPHARSDINGVEFHGMEDISRHIYKFFIDFGFKHVRFKHVELYGDKLVMRGSLNINGVDLDIEIISRKIDGRWLIHHWIIR”, the protease stability score is 0.859.

With “SEEERDMKEWLRLHVEALRTGDEHHLRHLMDPHTRIQVGDKEIHGMDEIARHVREIRQHVEIRVHHVEIIGDKIIMDVELRLIVHFDGKTFDIKTRFLLHIWKVNGRWILKSVHIE”, the protease stability score worked out at 1.21.

Source of the values: the NTF2 design screens of Basanta et al. (2020).
